Patent publication US20200345845A1 (RUBIUS THERAPEUTICS, published 2020)
Blank lines part the entries; values can stand above or below the molecule they belong to.

Columns and labels:
CD20 (human) [1] = biological target: CD20 (human) (UniProt P11836); test: flow cytometry, RCT binding to SU-DHL4 cells
CD20 (human) [2] = biological target: CD20 (human) (UniProt P11836); test: flow cytometry, RCT binding to Granta-519 cells
CD20 (human) [3] = biological target: CD20 (human) (UniProt P11836); test: flow cytometry, RCT binding to Toledo cells
CD20 (human) [4] = biological target: CD20 (human) (UniProt P11836); test: flow cytometry, RCT binding to Z138 cells
CD20 (human) [5] = biological target: CD20 (human) (UniProt P11836); test: cell-based or functional assay
PD-1 = PD-1 (UniProt Q15116); test: cell-based or functional assay
CD20 = biological target: T1, CD20 (human, UniProt P11836 1-297); test: immunofluorescence of co-culture with Ramos cells
T1 construct: whole, on cells; Endogenous CD20 on lymphoma cell lines; also called CD20 on CD20-expressing cell lines (Raji, Ramos, Z138, Granta-519, Toledo, SU-DHL4, DOHH-2)
T1 sequence (looked up): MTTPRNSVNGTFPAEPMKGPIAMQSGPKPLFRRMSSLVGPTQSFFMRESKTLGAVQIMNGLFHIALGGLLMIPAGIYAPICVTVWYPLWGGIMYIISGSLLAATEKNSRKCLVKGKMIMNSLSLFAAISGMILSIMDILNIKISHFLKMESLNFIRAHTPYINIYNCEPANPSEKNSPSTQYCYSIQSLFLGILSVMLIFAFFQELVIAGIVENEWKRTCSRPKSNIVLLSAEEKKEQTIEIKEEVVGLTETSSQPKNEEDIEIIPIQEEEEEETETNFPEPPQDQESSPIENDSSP

PD-1, sequence (Q15116 25-288 limits assumed): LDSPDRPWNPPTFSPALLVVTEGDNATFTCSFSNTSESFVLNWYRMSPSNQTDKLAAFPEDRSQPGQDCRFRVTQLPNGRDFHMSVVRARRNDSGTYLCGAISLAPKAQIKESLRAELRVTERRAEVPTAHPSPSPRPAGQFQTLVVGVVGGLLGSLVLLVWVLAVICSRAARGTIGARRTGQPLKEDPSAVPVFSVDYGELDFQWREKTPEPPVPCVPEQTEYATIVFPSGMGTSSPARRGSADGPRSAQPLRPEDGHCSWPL

Percent cells bound (CD20 (human) [1]): 91.3% | Percent cells bound (CD20 (human) [2]): 76% | Percent cells bound (CD20 (human) [3]): 37.1% | Percent cells bound (CD20 (human) [4]): 43.7% | apoptosis of Ramos cells after 48 hours of co-culture (CD20 (human) [5]): 32%
Molecule: RCT-antiCD20: enucleated erythroid cells expressing on their surface a fusion protein of a rituximab CD20 scFv domain, an HA epitope tag and full-length GPA

interferon-gamma secretion of PBMC in an antigen recall assay (PD-1): 3 to 4 fold
Molecule: RCT-antiPD1: enucleated erythroid cells expressing a fusion protein of a pembrolizumab-based anti-PD-1 scFv domain, an epitope tag (HA or Flag) and full-length GPA

binding result (CD20): no binding
B1: RCT-HA-GPA: control enucleated erythroid cells expressing on their surface the HA epitope tag fused to the N terminus of full-length GPA (other, not shown: small tags and cut ends)
chain: LSTTEVAMHTSTSSSVTKSYISSQTNDTHKRDTYAATPRAHEVSEISVRTVYPPEEETGERVQLAHHFSEPEITLIIFGVMAGVIGTILLISYGIRRLIKKSPSDVKPLPSPDTDVPLSSVEIENPETSDQ
notes: also called HA-GPA control RCT; control RCT-HA-GPA
